Reference: patent US20250297004A1, “NECTIN-4 BINDING AGENTS” (INNATE PHARMA, priority 2022, published 2025)
“Also recorded” adds a separate entry of the source.

T1: wild-type human Nectin-4 protein (Nectin4-His-BirA) (Homo sapiens, UniProt Q96NY8)
T1 construct: human Nectin4-His-BirA protein diluted to 5 μg/mL in Kinetic buffer 10× were captured onto the biosensors; BirA (biotinylation acceptor tag) (C)
T1 sequence (Q96NY8 with tags, fused parts or gaps): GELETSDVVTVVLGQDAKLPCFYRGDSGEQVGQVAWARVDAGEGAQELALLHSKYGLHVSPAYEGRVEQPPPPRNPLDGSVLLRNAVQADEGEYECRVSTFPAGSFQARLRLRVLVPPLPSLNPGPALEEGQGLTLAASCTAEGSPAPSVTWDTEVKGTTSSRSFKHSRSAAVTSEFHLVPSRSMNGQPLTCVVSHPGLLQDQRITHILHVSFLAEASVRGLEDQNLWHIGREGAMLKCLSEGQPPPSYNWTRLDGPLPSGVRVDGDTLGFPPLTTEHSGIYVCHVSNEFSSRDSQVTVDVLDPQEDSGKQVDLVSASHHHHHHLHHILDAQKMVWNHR

T2: human Nectin-4 Mutant 1 (S58P/G59D/Q61A/N106D/P107A) (Homo sapiens, UniProt Q96NY8, G59D/N106D/P107A/Q61A/S58P)
T2 construct: expressed in transfected cells; host or cells: HEK293T
T2 sequence (Q96NY8 32-510 S58P/G59D/Q61A/N106D/P107A): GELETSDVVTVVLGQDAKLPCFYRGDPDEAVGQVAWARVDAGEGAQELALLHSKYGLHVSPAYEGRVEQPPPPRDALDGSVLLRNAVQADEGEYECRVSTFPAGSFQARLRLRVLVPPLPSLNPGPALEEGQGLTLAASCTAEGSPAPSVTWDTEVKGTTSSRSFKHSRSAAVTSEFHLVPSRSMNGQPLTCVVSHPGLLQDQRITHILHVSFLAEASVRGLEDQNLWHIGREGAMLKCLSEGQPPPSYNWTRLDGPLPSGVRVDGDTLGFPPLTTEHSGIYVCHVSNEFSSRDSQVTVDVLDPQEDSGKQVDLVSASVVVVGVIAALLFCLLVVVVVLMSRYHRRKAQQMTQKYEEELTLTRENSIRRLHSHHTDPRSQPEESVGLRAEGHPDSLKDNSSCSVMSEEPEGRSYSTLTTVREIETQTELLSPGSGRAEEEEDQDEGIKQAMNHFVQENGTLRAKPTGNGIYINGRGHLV

T3: human Nectin-4 Mutant 2 (V90S/P92A/A93S/E95A/G96D) (Homo sapiens, UniProt Q96NY8, A93S/E95A/G96D/P92A/V90S)
T3 construct: expressed in transfected cells; host or cells: HEK293T
T3 sequence (Q96NY8 32-510 V90S/P92A/A93S/E95A/G96D): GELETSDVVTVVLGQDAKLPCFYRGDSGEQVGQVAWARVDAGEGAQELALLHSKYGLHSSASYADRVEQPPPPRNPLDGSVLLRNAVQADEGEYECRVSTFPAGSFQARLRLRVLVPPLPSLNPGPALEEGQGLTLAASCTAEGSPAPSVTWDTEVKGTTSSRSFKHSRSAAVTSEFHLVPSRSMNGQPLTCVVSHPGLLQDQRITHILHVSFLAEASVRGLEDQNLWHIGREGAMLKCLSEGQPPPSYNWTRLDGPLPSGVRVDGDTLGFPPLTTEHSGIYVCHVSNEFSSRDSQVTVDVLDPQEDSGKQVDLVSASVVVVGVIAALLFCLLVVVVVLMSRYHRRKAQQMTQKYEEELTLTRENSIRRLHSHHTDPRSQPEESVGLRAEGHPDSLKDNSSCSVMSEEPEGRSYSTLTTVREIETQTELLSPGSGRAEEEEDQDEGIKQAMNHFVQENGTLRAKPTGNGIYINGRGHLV


Columns and labels:
[1] = target: T1, wild-type human Nectin-4 protein (Nectin4-His-BirA); assay: Epitope mapping by competition for binding to Nectin-4 (SPR/OCTET); conditions: listed as antibody = 1st mAb injected; 10 μg/mL each
Method: Briefly, human Nectin4-His-BirA protein diluted to 5 μg/mL in Kinetic buffer 10× were captured onto the biosensors. The first antibody was injected diluted to 10 μg/mL in Kinetic buffer 10×, followed by a second injection of the first antibody diluted to 10 μg/mL in Kinetic buffer 10× in order to saturate the signal. The second antibody was injected diluted to 10 μg/mL in Kinetic buffer 10×.
Squares with “O” indicate substantial or direct competition between the 1st and 2nd antibody (1st antibody prevents/causes loss of binding of 2nd antibody), squares with “X” indicate potential partial competition (1st antibody causes a potential reduction but not loss of binding of 2nd antibody), squares with “N/A” indicate no competition.

[2] = system: SUM190 cells subcutaneously engrafted in CB17-SCID mice; assay: In vivo efficacy of ggfg-Dxd ADCs, Nectin-4 low/SUM190 mouse model of human breast cancer; conditions: single i.v. injection 3 mg/kg, each antibody conjugated to ggfg-Dxd, DAR=8, FIG. 4
Method: SUM190 cells were subcutaneously engrafted in CB17-SCID immunodeficient mice at a dose of 0.5 million cells in 100 μl of Matrigel with growth factor diluted at ½ in PBS. When tumors reached a volume between 195 and 250 mm3, mice were randomized into groups of 9 mice for intravenous treatment with a single injection of 3 mg/kg of camptothecin ADCs. Tumor growths were followed twice a week. Kaplan Meier survival curves were established by using GraphPad Prism V7 software according to the following criteria: When the tumor volume reached 1500 mm3, mice were euthanized and considered dead on the day of sacrifice (D).

[3] = target: T2, human Nectin-4 Mutant 1 (S58P/G59D/Q61A/N106D/P107A); assay: Epitope mapping using Nectin-4 point mutants; type: binding
Source text: (§1) Combined with the published structures of the Nectin-4 domains, Nectin-4 mutations at surface exposed amino acids residues were designed. Nectin-4 domain structure was modelled based on Protein Data Bank reference: 4FRW (domains V et C1). Human Nectin-4 used was NCBI Reference Sequence: NP_112178.2, mouse Nectin-4 used was NCBI Reference Sequence: AAL79833.1, cynomolgus Nectin-4 used was NCBI Reference Sequence: XP_005541277.1, rat Nectin-4 used was NCBI Reference Sequence: NP_001102546.1. The cells expressing the Nectin-4 mutants are then be used for testing anti-Nectin-4 antibodies for loss of binding to different Nectin-4 mutants to identify antibodies that bind to the same site on Nectin-4. […] FIGS. 8A and 8B show different view of a molecular model of the human Nectin-4 protein, indicating the position of substituted residues in mutants 1, 2, 3, 4, 5, 6, 7, 8 and 9.
(§2) Nectin-4 mutants were generated by PCR. The sequences amplified were run on agarose gel and purified using the Macherey Nagel PCR Clean-Up Gel Extraction kit. The purified PCR products generated for each mutant were then ligated into an expression vector, with the ClonTech InFusion system. The vectors containing the mutated sequences were prepared as Miniprep and sequenced. After sequencing, the vectors containing the mutated sequences were prepared as Midiprep using the Promega PureYield™ Plasmid Midiprep System. HEK293T cells were grown in DMEM medium (Invitrogen), transfected with vectors using Invitrogen's Lipofectamine 2000 and incubated at 37° C. in a CO2 incubator for 48 hours prior to testing for transgene expression. The targeted amino acid mutations are shown in Table 13 below, listing the residue present in wild-type Nectin-4/position of residue/residue present in mutant Nectin-4, with position reference being to the Nectin-4 protein with leader peptide shown in SEQ ID NO: 1.
(§3) (+) means that antibodies-Nectin-4 association occurs.

[4] = target: T3, human Nectin-4 Mutant 2 (V90S/P92A/A93S/E95A/G96D); assay: Epitope mapping using Nectin-4 point mutants; type: binding
Source text: as §1, §2, §3

Molecule | competition, 2nd mab injected: 5E7 [1] | control of tumor growth ([2]; 3 mg/kg) | association with Mutant 1 [3] | association with Mutant 2 [4] | competition, 2nd mab injected: 14A5 [1] | competition, 2nd mab injected: MABT64 [1] | competition, 2nd mab injected: N41 [1] | control of tumor growth [2]
5E7 (antibody, V domains shown) VH: QVQLQQPGAELVKPGASVKLSCKASGYIFTSYWMHWVKQRPGQGLEWIGEIDPSDSYTNYNQKFKGKATLTLDKSSSTTYMQLSSLTSEDSAVYYCVRGYGNYGDYWGQGTTLTVSSASTKGP VL: DVVMTQAAFSNPVTLGTSASISCRSSKSLLHSNGITYLYWYLQKPGQSPQLLIYQMSNLASGVPDRFSSSGSGTDFTLRISRVEAEDVGVYYCAQNLELPWTFGGGTKLEIKRTVAAP | ◯ | strong ability to prevent tumor growth; also recorded: able to effectively control tumor growth | + | + |  |  |  | 
N41 (antibody, V domains shown) VH: QVQLKQSGPGLVQPSQSLSITCTVSGFSLTNYGVHWVRQSPGKGLEWLGVIWSGGSTDYNAAFISRLSISKDTSKSQVFFKMNSLQADDTAIYYCARELIHAMDNWGQGTSVTVSS VL: DIQMTQSPASLSVSVGETVTITCRASENIYSNLAWYQQKQGNSPQLLVFAATNLADGVPSRFSGSGSGTQYSLKINSLQSEDFGTYYCQHFWGTPTFGGGTKLEIK |  |  | − | + | ◯ | ◯ | ◯ | no longer showed the ability to control tumor growth
